Publication PMC6581175, “Versatile Oxidase and Dehydrogenase Activities of Bacterial Pyranose 2-Oxidase Facilitate Redox Cycling with Manganese Peroxidase In Vitro” (Applied and Environmental Microbiology, 2019)

Tests used:
[1] = tested on: CCn1c(=N[N]c2sc3cc(S(=O)(=O)O)ccc3[n+]2CC)sc2cc(S(=O)(=O)O)ccc21; assay: purified protein; settings: pH 7.5; 30.0 °C
KaPOx = target: T1, KaPOx (Kitasatospora aureofaciens, UniProt A0A1E7NAU4); assay: spectrophotometric electron acceptor reduction; settings: apparent, 30 mM D-glucose, nitrogen-bubbled solutions, 50 mM Britton-Robinson pH 7.5, 30°C, kcat per dimer
T1 construct: gene HS99_0024835
T1 sequence (A0A1E7NAU4 1-545): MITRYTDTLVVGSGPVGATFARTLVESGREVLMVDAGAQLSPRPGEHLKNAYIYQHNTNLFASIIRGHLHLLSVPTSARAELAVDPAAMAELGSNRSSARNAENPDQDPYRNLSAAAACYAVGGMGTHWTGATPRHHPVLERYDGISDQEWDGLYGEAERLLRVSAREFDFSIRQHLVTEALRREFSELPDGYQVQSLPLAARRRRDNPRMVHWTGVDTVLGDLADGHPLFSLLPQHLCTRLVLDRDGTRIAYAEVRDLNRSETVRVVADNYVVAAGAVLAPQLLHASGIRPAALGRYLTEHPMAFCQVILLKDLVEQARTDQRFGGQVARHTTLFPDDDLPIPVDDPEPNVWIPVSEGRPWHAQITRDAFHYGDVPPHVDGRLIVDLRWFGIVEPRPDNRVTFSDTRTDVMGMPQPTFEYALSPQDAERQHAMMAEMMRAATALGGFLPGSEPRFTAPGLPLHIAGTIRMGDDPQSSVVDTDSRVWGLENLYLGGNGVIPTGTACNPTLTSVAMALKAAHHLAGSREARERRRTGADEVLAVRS

purified protein [2] = substrate: O=C1O[C@H](CO)[C@@H](O)[C@H](O)[C@H]1O; assay: purified protein; type: biochemical, Kitasatospora aureofaciens; settings: apparent, electron donor, O2 at air saturation (about 250 uM), 50 mM Britton-Robinson pH 7.5, 30°C, kcat per dimer
purified protein [3] = substrate: O=C1C=CC(=O)C=C1; assay: purified protein; settings: apparent, electron acceptor, 30 mM D-glucose, nitrogen-bubbled solutions, 50 mM Britton-Robinson pH 7.5, 30°C, kcat per dimer
purified protein [4] = substrate: O=C1C(Cl)=CC(=Nc2ccc(O)cc2)C=C1Cl; assay: purified protein; settings: apparent, electron acceptor, 30 mM D-glucose, nitrogen-bubbled solutions, 50 mM Britton-Robinson pH 7.5, 30°C, kcat per dimer

How did the Km [1] turn out when KaPOx (Kitasatospora aureofaciens) was run?
Its Km is 40 ± 0 µM.

What about the Vmax [1] of the same molecule?
The Vmax was 6.1 µmol/min/mg.

And the kcat/Km [1]?
Its kcat/Km is 309000 M⁻¹ s⁻¹.

With Ferrocenium ion as the molecule, how does the Km (KaPOx) read?
Its Km is 1030 ± 1000 µM.

B1: KaPOx (Kitasatospora aureofaciens) (protein)
chain: MITRYTDTLVVGSGPVGATFARTLVESGREVLMVDAGAQLSPRPGEHLKNAYIYQHNTNLFASIIRGHLHLLSVPTSARAELAVDPAAMAELGSNRSSARNAENPDQDPYRNLSAAAACYAVGGMGTHWTGATPRHHPVLERYDGISDQEWDGLYGEAERLLRVSAREFDFSIRQHLVTEALRREFSELPDGYQVQSLPLAARRRRDNPRMVHWTGVDTVLGDLADGHPLFSLLPQHLCTRLVLDRDGTRIAYAEVRDLNRSETVRVVADNYVVAAGAVLAPQLLHASGIRPAALGRYLTEHPMAFCQVILLKDLVEQARTDQRFGGQVARHTTLFPDDDLPIPVDDPEPNVWIPVSEGRPWHAQITRDAFHYGDVPPHVDGRLIVDLRWFGIVEPRPDNRVTFSDTRTDVMGMPQPTFEYALSPQDAERQHAMMAEMMRAATALGGFLPGSEPRFTAPGLPLHIAGTIRMGDDPQSSVVDTDSRVWGLENLYLGGNGVIPTGTACNPTLTSVAMALKAAHHLAGSREARERRRTGADEVLAVRS
notes: full-length synthetic gene, C-terminal 6xHis kept, N-terminal T7 tag excluded, pET-21b(+), E. coli T7 Express; no signal peptide predicted
With B1 as the molecule, how does the Km (purified protein [2]) read?
The Km was 28700 ± 2400 µM.

What about the Vmax (purified protein [2]) of the same molecule?
Its Vmax is 0.8 µmol/min/mg.

And the kcat (purified protein [2])?
Its kcat is 1.8 ± 0.1 s⁻¹.

What about the kcat/Km (purified protein [2]) of the same molecule?
The kcat/Km was 60 M⁻¹ s⁻¹.

And the Km (purified protein [3])?
The Km was 80 ± 100 µM.

And the Vmax (purified protein [3])?
Its Vmax is 12.2 µmol/min/mg.

And the kcat (purified protein [3])?
The kcat was 24.9 ± 7.1 s⁻¹.

And the kcat/Km (purified protein [3])?
Its kcat/Km is 311000 M⁻¹ s⁻¹.

And the Km (purified protein [4])?
The Km was 30 ± 0 µM.

And the Vmax (purified protein [4])?
The Vmax was 4.4 µmol/min/mg.

What about the kcat (purified protein [4]) of the same molecule?
The kcat was 9.4 ± 1.1 s⁻¹.

And the kcat/Km (purified protein [4])?
The kcat/Km was 313000 M⁻¹ s⁻¹.
